# Measured values from the supplement of paper PMC10126150.
# ± gives the standard deviation of the averaged measurements.
# Test system: ATP
# Test: switch fluorescence ratio, 500 uM ATP over buffer (Cy3 cluster intensity, sum of 5 cycles each) (fold (ratio)); higher = stronger signal-on switching upon ATP binding; sequences stand for … in TCGTCGGCAGCGTCAGATGTGTATAAGAGACAGTTTTTTTTTTTTTTTTTTTTTTTTT…TC
# Conditions: aptamer strand: ATP DNA aptamer (quencher-CACCTGGGGGAGTATTGCGGAGGAAGG + anchor), 100 nM annealed; ATP concentration: 500 uM
# Procedure, shortened: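 Per cluster, summed Cy3 intensity from the target cycles was divided by that from the buffer cycles to give the fluorescence ratio, then averaged per switch-domain sequence. Clusters outside 100-1000 RFU were excluded. The Cy3-labelled switching-strand clusters, on a modified Illumina MiSeq flow-cell, were annealed to 100 nM quencher-labelled ATP aptamer and imaged in selection buffer, then after 15 min with 500 uM ATP at 22 °C, for five cycles with NaOH stripping and re-annealing between them.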
# 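Also: ATP exposure 15 min at 22 °C before imaging.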
row,Sequence,switch fluorescence ratio
1,AATGGATTTG,0.995 ± 0.013
2,AATGGATTTT,0.982 ± 0.013
3,AATGGCCGGC,0.987 ± 0.014
4,AATGGCGGTA,0.9928 ± 0.0082
5,AATGGCGTTG,1 ± 0.057
6,AATGGCTTTG,1.029 ± 0.0062
7,AATGGGAAGT,0.991 ± 0.019
8,AATGGGATAG,1.02 ± 0.021
9,AATGGGATTC,0.9881 ± 0.009
10,AATGGGCAAG,1.05 ± 0.015
11,AATGGGCCCT,0.979 ± 0.047
12,AATGGGCGGA,0.995 ± 0.017
13,AATGGGCGTC,0.9902 ± 0.0069
14,AATGGGGCCT,1.03 ± 0.02
15,AATGGGGCGG,1.03 ± 0.034
16,AATGGGGTTT,0.9689 ± 0.0085
17,AATGGGTATT,0.987 ± 0.026
18,AATGGGTCGT,0.9673 ± 0.0077
19,AATGGGTTTT,0.976 ± 0.011
20,AATGGTAATA,0.986 ± 0.025
21,AATGGTATTC,0.998 ± 0.025
22,AATGGTCGTG,0.998 ± 0.02
23,AATGGTGGCT,1.11 ± 0.099

row,Sequence,switch fluorescence ratio
1,AATGGTGGGG,0.9912 ± 0.0053
2,AATGGTGGGT,1.01 ± 0.036
3,AATGGTGGTC,0.998 ± 0.012
4,AATGGTGGTT,0.996 ± 0.03
5,AATGGTTATC,0.9753 ± 0.0046
6,AATGGTTGGT,0.994 ± 0.016
7,AATGGTTTGC,1.13 ± 0.23
8,AATGTAAACG,0.978 ± 0.027
9,AATGTAGGAC,1.018 ± 0.0026
10,AATGTAGGCT,1.03 ± 0.027
11,AATGTCGACG,0.994 ± 0.036
12,AATGTGCGTT,0.993 ± 0.04
13,AATGTGGCGC,0.9643 ± 0.0043
14,AATGTGTCCC,0.991 ± 0.041
15,AATGTGTGCT,0.949 ± 0.0099
16,AATGTTACGG,1.061 ± 0.0098
17,AATGTTATAT,1.01 ± 0.014
18,AATGTTCAGG,0.995 ± 0.021
19,AATGTTGAAG,0.987 ± 0.034
20,AATGTTTAAA,0.9764 ± 0.0016
21,AATGTTTCTG,0.998 ± 0.038
22,AATGTTTTTT,1 ± 0.016
23,AATTAATGGT,0.978 ± 0.011

row,Sequence,switch fluorescence ratio
1,AATTAATTAA,1.004 ± 0.01
2,AATTAATTTT,0.995 ± 0.038
3,AATTACGGTG,1.05 ± 0.022
4,AATTACTTCT,1.042 ± 0.0026
5,AATTAGAATG,0.974 ± 0.029
6,AATTAGACGT,0.988 ± 0.015
7,AATTAGGCGG,1.02 ± 0.02
8,AATTAGTGCT,0.9938 ± 0.0069
9,AATTATGTCA,1.01 ± 0.022
10,AATTATTGGC,1.02 ± 0.061
11,AATTCAGATG,0.9623 ± 0.0077
12,AATTCAGCCT,1.06 ± 0.035
13,AATTCAGTTT,1.01 ± 0.033
14,AATTCATTTT,1.03 ± 0.059
15,AATTCCATTT,1.01 ± 0.023
16,AATTCCGGCG,1.12 ± 0.098
17,AATTCCGGGA,1.05 ± 0.068
18,AATTCCTCTT,1.05 ± 0.048
19,AATTCGACGA,1.006 ± 0.0056
20,AATTCGCGGG,0.981 ± 0.0069
21,AATTCGTGTT,0.989 ± 0.021
22,AATTCTTTTG,1.01 ± 0.043
23,AATTGACCCC,1.09 ± 0.023

row,Sequence,switch fluorescence ratio
1,AATTGACTTT,1.04 ± 0.011
2,AATTGCACGG,1.04 ± 0.016
3,AATTGCGTCA,0.9608 ± 0.0066
4,AATTGCGTTT,1.01 ± 0.024
5,AATTGGAAGT,1.01 ± 0.04
6,AATTGGATCT,1.01 ± 0.027
7,AATTGGATGT,1.01 ± 0.021
8,AATTGGGATT,0.998 ± 0.026
9,AATTGGGCCT,1.034 ± 0.003
10,AATTGGTCAT,1 ± 0.018
11,AATTGGTGGG,0.9916 ± 0.0084
12,AATTGGTTCG,0.984 ± 0.012
13,AATTGTAGGG,0.987 ± 0.03
14,AATTGTAGTT,0.9786 ± 0.0048
15,AATTGTATTA,0.973 ± 0.041
16,AATTGTCATT,1.01 ± 0.019
17,AATTGTCGCG,1.01 ± 0.012
18,AATTGTGGTT,0.97 ± 0.043
19,AATTGTTGTG,1 ± 0.022
20,AATTGTTTAT,0.9998 ± 0.0092
21,AATTTAAAAA,0.986 ± 0.022
22,AATTTAAATT,1 ± 0.037
23,AATTTAAGGT,0.977 ± 0.022

row,Sequence,switch fluorescence ratio
1,AATTTAATGG,1.04 ± 0.053
2,AATTTACGTG,1.06 ± 0.011
3,AATTTAGGTC,0.934 ± 0.028
4,AATTTAGTAT,0.996 ± 0.022
5,AATTTAGTGC,0.998 ± 0.07
6,AATTTCGCAA,3.4 ± 1.3
7,AATTTGCCGT,1.04 ± 0.042
8,AATTTGGGGC,0.982 ± 0.022
9,AATTTGGTTA,0.995 ± 0.045
10,AATTTGTAAA,0.981 ± 0.04
11,AATTTGTCCG,0.992 ± 0.041
12,AATTTTAGAG,0.973 ± 0.045
13,AATTTTAGCT,1.008 ± 0.0066
14,AATTTTGCTG,0.9662 ± 0.0053
15,AATTTTGTGG,1.03 ± 0.014
16,AATTTTTAT,1 ± 0.0022
17,AATTTTTTGA,0.972 ± 0.033
18,AATTTTTTTG,1.04 ± 0.051
19,AATTTTTTTT,1.01 ± 0.043
20,ACAAACTGCA,1.17 ± 0.067
21,ACAAATTGCC,1.031 ± 0.0017
22,ACAACAGCAC,1.18 ± 0.03
23,ACAAGACTGT,1.04 ± 0.048

row,Sequence,switch fluorescence ratio
1,ACAAGGAATG,0.997 ± 0.044
2,ACAAGGGCAT,1.03 ± 0.025
3,ACAAGGGGGG,1 ± 0.045
4,ACAAGGGTTA,0.999 ± 0.018
5,ACAAGGGTTC,1 ± 0.015
6,ACAAGTCGTT,0.972 ± 0.039
7,ACAATAAAAG,1.05 ± 0.044
8,ACAATGAGTG,1.003 ± 0.0011
9,ACAATGTCTA,0.962 ± 0.022
10,ACACACGGTC,1.34 ± 0.1
11,ACACAGGGTC,1.07 ± 0.011
12,ACACCTAAAC,1.065 ± 0.0096
13,ACACGATGCC,1 ± 0.043
14,ACACGGGGGC,1 ± 0.059
15,ACACGTGGGA,1.015 ± 0.0032
16,ACACGTGGGC,1.02 ± 0.029
17,ACACGTTTTT,1 ± 0.014
18,ACACTAGGGG,1.23 ± 0.17
19,ACACTTAGCT,1.07 ± 0.025
20,ACAGCGGCTA,1.02 ± 0.017
21,ACAGCGGGGG,1.03 ± 0.045
22,ACAGCGTTTG,0.983 ± 0.03
23,ACAGCTGGCG,1.05 ± 0.024

row,Sequence,switch fluorescence ratio
1,ACAGCTGGGT,0.98 ± 0.015
2,ACAGCTTTGA,0.985 ± 0.026
3,ACAGGAGGAA,1.01 ± 0.046
4,ACAGGATGTT,1.01 ± 0.027
5,ACAGGCTGCG,0.995 ± 0.024
6,ACAGGCTGGT,1.02 ± 0.028
7,ACAGGGGAGA,1.03 ± 0.024
8,ACAGGGGCCA,0.999 ± 0.011
9,ACAGGGGGCT,1.04 ± 0.051
10,ACAGGGGGGG,1.07 ± 0.19
11,ACAGGGGTAT,1.02 ± 0.066
12,ACAGGGGTTG,0.978 ± 0.033
13,ACAGGTTGGT,1.03 ± 0.018
14,ACAGTGCTGC,0.978 ± 0.012
15,ACAGTGTGTG,1.02 ± 0.027
16,ACAGTTAGGG,1.02 ± 0.024
17,ACAGTTCTTG,0.997 ± 0.023
18,ACATAATTAG,1.016 ± 0.0095
19,ACATAGCTTG,1.03 ± 0.011
